In article PMC9769551:

Biological target: T1, AcrR (Escherichia coli BW25113) (UniProt P0ACS9)
T1 sequence: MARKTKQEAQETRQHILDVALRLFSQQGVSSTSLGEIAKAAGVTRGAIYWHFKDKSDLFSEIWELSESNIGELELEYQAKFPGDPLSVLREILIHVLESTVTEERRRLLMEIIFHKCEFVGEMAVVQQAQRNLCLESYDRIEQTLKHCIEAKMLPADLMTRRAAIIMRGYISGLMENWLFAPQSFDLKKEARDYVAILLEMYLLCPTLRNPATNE
Experiment: EMSA
Conditions: 10 mM Tris-HCl pH 7.5, 50 mM KCl, 1 mM DTT, 5 mM MgCl2, 1 ug poly(dI-dC), 0.05% NP-40, 5% glycerol, 20 uL with 25 fmol DNA (protein stock in 200 mM NaCl, 20 mM …)

Sequence	binding
GTGGACTAAATTATCGCCATTACTGCGCTTTAAATGACCTTTATGTTCAATATTTTTTCAATCTAGCAGTGGGTTTTCATTTTTGCAAACTCAATTTAACATTTGACAAACATTTAGTTTGCATACAGATTCGAATGGTGGTCATTATATTTTACGCTTTGATAACGAGCGGAAAACAAACCAAAGGCGAAGAATCATGGAAACCAATATCGTTGAAGTAGAGAAC (double strand) [puuAp 226 bp]	binds
CTTTGATAGTCATATATTCCACCAGCTATTTGTTAGTGAATAAAAGGTTGCCTGTAAAATTACAAAAACCTTACGCAGCGTCAAGCGGAATCGTGTCAATCATTGCGACAAATCAATCCTGTGCCTAAGCATTACGCGACTGACTCGCCTCACTCTTCCTTTGGGCTTGAGACCACATGGGGTCGGCGCCCCGAATTTTAAAGGGCAATTACGATAAAAATGTGATTTTCATCACGATTTAGGTGCAGC (double strand) [gapAp 249 bp]	no binding
TGTTCATATGTAAACCTCGAGTGTCCGATTTCAAATTGGTCAATGGTCAAAAGTTAATAAACCCATTGCTGCGTTTATATTATCGTCGTGCTATGGTACATACATTCACAAATGTATGTAAATCTAACGCCTGTAAATTCACGAACATATGGCACGAAAAACCAAACAAGAAGCGCAAG (double strand) [acrABp 179 bp]	binds
CAAAGTAAAGTGGTCAAGCCCCGCGCATAGCGCAAGCTTTGGCAGAAGAAAGGACTAAAGCGCGTTGCGCCAGTGCTGCTCACCTACGAGCAAGATAGTGGATGAGGTACGAAGATGGGTAAATGTAGAAAATAACGTCCTGAACAAATTGTCCATAATATTACAATTATCCGCAGTGTTGCTTCTCGTCATCGCGGATGATAATTGTCCTCGGTAGTTGAACACGCCTGATTTGTATCATAGCTTAAGAATTAACTCAAAATATTTTCACTTCTTTACCTGAGCG (double strand) [mdtUJIp 286 bp]	binds
